Test results published in patent publication US20020197702A1 (IDUN PHARMACEUTICALS, published 2002).
Ends that are not written are not given here. * marks the point of attachment. Cbz = O=C(OCc1ccccc1)*

T1: r-caspase-3 (His)6 (human, UniProt P42574 29-175; P42574 176-277)
T1 sequence 1: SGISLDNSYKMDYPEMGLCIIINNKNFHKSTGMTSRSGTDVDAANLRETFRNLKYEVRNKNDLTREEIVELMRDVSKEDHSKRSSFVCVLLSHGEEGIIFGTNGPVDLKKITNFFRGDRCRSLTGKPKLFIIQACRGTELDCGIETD
T1 sequence 2: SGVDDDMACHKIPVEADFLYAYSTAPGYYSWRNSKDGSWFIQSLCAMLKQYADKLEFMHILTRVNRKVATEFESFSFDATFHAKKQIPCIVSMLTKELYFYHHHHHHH

T2: affinity purified membrane derived caspase-3 from 697 cell heavy membranes (human, UniProt P42574 14-175; P42574 176-277, limits assumed)
T2 chain 1: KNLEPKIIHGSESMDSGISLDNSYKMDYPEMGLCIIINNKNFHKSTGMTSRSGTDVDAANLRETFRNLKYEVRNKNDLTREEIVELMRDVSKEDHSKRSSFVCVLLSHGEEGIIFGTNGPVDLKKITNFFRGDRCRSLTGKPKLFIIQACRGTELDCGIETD
T2 chain 2: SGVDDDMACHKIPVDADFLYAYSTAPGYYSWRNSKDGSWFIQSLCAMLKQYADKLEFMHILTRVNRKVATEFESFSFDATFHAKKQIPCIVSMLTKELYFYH

T3: 697-neo HM (spontaneous activity) caspase (human, UniProt P42574 14-175, limits assumed)
T3 sequence 1: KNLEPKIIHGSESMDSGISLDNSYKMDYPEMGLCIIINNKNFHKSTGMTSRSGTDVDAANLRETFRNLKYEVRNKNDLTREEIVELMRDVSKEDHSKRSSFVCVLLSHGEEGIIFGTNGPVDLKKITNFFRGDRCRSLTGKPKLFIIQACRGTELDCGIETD
T3 sequence 2: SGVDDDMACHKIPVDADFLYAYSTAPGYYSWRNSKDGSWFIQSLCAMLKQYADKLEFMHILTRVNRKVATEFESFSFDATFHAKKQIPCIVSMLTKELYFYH

T4: 697-neo HM (caspase-1 treated) caspase (human, UniProt P42574 14-175; P42574 176-277, limits assumed)
T4 chain 1: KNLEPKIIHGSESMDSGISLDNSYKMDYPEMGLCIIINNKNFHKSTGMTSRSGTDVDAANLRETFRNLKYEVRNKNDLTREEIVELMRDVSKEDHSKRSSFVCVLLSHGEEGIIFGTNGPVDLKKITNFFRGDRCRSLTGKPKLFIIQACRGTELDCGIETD
T4 chain 2: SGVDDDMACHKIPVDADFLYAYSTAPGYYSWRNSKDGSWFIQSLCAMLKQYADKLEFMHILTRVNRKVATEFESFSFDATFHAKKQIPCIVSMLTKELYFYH

T5: 697 Bcl-2 HM (caspase-1 treated) caspase (human, UniProt P42574 14-175; P42574 176-277, limits assumed)
T5 chain 1: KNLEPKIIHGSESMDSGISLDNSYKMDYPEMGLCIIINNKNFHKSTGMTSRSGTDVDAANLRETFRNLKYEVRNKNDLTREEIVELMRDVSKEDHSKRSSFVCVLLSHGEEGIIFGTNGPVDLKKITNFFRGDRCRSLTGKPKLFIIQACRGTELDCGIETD
T5 chain 2: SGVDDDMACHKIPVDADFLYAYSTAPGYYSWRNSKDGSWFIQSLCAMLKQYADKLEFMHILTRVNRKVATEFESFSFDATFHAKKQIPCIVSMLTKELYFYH


Experiments:
Assay in all cases: cell-based or functional assay
[1] = molecular target: MN9D HM (caspase-1 treated) caspase (mouse)
[2] = molecular target: cortical cell HM (caspase-1 treated) caspase (mouse)
r-caspase-3 (His)6 [3] = molecular target: T1, r-caspase-3 (His)6
[4] = molecular target: T2, affinity purified membrane derived …
r-caspase-3 (His)6 [5] = molecular target: T1, r-caspase-3 (His)6; remark: listed apart in the source
[6] = molecular target: T3, 697-neo HM (spontaneous activity) …
[7] = molecular target: T4, 697-neo HM (caspase-1 treated) caspase
[8] = molecular target: T5, 697 Bcl-2 HM (caspase-1 treated) caspase

IC50, inhibition of DEVD-amc cleavage [1] [nM]	IC50, inhibition of DEVD-amc cleavage [2] [nM]	IC50, inhibition of DEVD-amc cleavage (r-caspase-3 (His)6 [3]) [nM]	IC50, inhibition of DEVD-AMC cleavage activity [4] [nM]	IC50, inhibition of DEVD-AMC cleavage activity (r-caspase-3 (His)6 [5]) [nM]	IC50, inhibition of DEVD-amc cleavage [6] [nM]	IC50, inhibition of DEVD-amc cleavage [7] [nM]	IC50, inhibition of DEVD-amc cleavage [8] [nM]	Binder
> 10000	> 10000	> 10000						Ac-YVAD-aldehyde [YVAD-ald]
			32	24				Cbz-Glu-Val-Asp-aldehyde (SMILES CC(C)[C@H](NC(=O)[C@H](CCC(=O)O)NC(=O)OCc1ccccc1)C(=O)N[C@H](C=O)CC(=O)O) [ZEVDald]

Continued, binder first:

Binder	IC50, inhibition of DEVD-amc cleavage [1] [nM]	IC50, inhibition of DEVD-amc cleavage [2] [nM]	IC50, inhibition of DEVD-amc cleavage (r-caspase-3 (His)6 [3]) [nM]	IC50, inhibition of DEVD-AMC cleavage activity [4] [nM]	IC50, inhibition of DEVD-AMC cleavage activity (r-caspase-3 (His)6 [5]) [nM]	IC50, inhibition of DEVD-amc cleavage [6] [nM]	IC50, inhibition of DEVD-amc cleavage [7] [nM]	IC50, inhibition of DEVD-amc cleavage [8] [nM]
VEID-aldehyde [VEIDald]				34	32			
DEVD-aldehyde [DEVD-ald]	0.72	1	1	1	1			
DFLD-aldehyde [DFLD-ald]	2.5	2.3	1.5	4.7	1.1	3.4	4.5	3.6
